This note sets out measurements from patent publication US20210139579A1.

Substitutions are numbered along the chain they refer to. Like-named read-outs stand apart in the source and are kept apart here.

Assay [1] concerns the target human ROR1 (hROR1) on the cell surface (human) (UniProt Q01973). Put plainly: cell-based or functional assay.
Assay [2] has the same target. Put plainly: cell-based or functional assay. This is another data set of the same source.

Sequence of human ROR1 (hROR1) on the cell surface (human) (Q01973 30-937): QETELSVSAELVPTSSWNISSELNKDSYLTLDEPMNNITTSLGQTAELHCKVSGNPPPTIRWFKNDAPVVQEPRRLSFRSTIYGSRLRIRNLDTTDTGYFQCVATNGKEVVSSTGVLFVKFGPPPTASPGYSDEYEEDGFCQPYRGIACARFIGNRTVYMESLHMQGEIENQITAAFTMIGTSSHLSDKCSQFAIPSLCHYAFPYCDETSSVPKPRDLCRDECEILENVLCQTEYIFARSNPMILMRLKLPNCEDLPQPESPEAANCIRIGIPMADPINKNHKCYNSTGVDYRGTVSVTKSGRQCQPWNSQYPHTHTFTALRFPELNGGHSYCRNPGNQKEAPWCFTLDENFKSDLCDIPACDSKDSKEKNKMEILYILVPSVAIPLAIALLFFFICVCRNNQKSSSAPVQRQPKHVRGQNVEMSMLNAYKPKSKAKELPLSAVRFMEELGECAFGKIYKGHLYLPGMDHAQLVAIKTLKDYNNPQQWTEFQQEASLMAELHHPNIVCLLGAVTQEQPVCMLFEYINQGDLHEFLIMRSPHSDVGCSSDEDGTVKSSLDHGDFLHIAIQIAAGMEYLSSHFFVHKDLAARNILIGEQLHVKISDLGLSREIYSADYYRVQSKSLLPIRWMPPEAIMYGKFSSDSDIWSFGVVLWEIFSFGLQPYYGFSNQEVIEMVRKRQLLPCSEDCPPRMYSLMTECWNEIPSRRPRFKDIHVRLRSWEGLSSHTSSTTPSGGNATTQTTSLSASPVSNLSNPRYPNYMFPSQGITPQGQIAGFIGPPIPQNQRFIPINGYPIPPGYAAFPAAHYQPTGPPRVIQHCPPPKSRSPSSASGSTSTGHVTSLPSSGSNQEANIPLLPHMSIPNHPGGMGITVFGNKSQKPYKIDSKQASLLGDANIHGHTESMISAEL

B1: R12-G5-PNU (antibody, V domains shown)
VH: QEQLVESGGRLVTPGGSLTLSCKASGFDFSAYYMSWVRQAPGKGLEWIATIYPSSGKTYYATWVNGRFTISSDNAQNTVDLQMNSLTAADRATYFCARDSYADDGALFNIWGPGTLVTISS
VL: ELVLTQSPSVSAALGSPAKITCTLSSAHKTDTIDWYQQLQGEAPRYLMQVQSDGSYTKRPGVPDRFSGSSSGADRYLIIPSVQADDEADYYCGADYIGGYVFGGGTQLTVTG
modifications: EDA-PNU-159682 derivative on the C-terminal glycine (G5-PNU joined by sortase)
As to B1, in assay [1], the IC50, in vitro cell killing of 697 cells stood at 0.873 µg/mL. In assay [2], this molecule gave an IC50, in vitro cell killing of 697 cells of 100 nM; an IC50, in vitro cell killing of HS 578T cells of 3.5 µg/mL; an IC50, in vitro cell killing of HT-29 cells of 10.3 µg/mL; an IC50, in vitro cell killing of MDA-MB-468 cells of 3.96 µg/mL.

B2: XBR1-402-G5-PNU (antibody, V domains shown)
VH: QEQQKESGGGLFKPTDTLTLTCTASGFDISSYYMSWVRQAPGNGLEWIGAIGISGNAYYASWAKSRSTITRNTNLNTVTLKMTSLTAADTATYFCARDHPTYGMDLWGPGTLVTVSS
VL: SYELTQLPSVSVSLGQTARITCEGNNIGSKAVHWYQQKPGLAPGLLIYDDDERPSGVPDRFSGSNSGDTATLTISGAQAGDEADYYCQVWDSSAYVFGGGTQLTVTG
modifications: EDA-PNU-159682 derivative on the C-terminal glycine (G5-PNU joined by sortase)
In assay [2], B2 displayed an IC50, in vitro cell killing of A549 cells of 177 µg/mL; an IC50, in vitro cell killing of HS 578T cells of 1.4 µg/mL; an IC50, in vitro cell killing of HT-29 cells of 23.3 µg/mL; an IC50, in vitro cell killing of hROR1-overexpressing EMT-6 cells of 1.7 nM.

B3: Top43-G5-PNU (adc204) (antibody, V domains shown)
VH: QSLEESGGRLVTPGTPLTLTCTVSGFSLSSYWMSWVRQAPGKGLEWIGAIYGSGNTYYASWAKGRFTISKTSTTVDLKITSPTTEDTATYFCARDVHSTATDLWGPGTLVTISS
VL: SYELTQLPSVSVSLGQTARITCGGNNIGSKAVNWYQQKPGLAPGLLIYNDDERPSGVPDRFSGSNSGDTATLTISGAQAGDEADYYCQLWDSSAGAYVFGGGTQLTVTG
modifications: EDA-PNU-159682 derivative on the C-terminal glycine (G5-PNU joined by sortase)
B3: in assay [2], the IC50, in vitro cell killing of 697 cells amounted to 0.314 µg/mL; the IC50, in vitro cell killing of A549 cells came to 109 µg/mL; the IC50, in vitro cell killing of HS 578T cells was found to be 0.707 µg/mL; the IC50, in vitro cell killing of HT-29 cells is 23.1 µg/mL. The molecule further showed an IC50, in vitro cell killing of MDA-MB-468 cells in assay [2] of 0.463 µg/mL.

B4: ERR1-301-G5-PNU (adc200) (antibody, V domains shown)
VH: QEQLEESGGGLVTPGGSLTLTCTASGFTISTYHMSWVRQAPGKGLEWIGSIYAGSGSTYYASWVNGRFTISSNTTQNTVSLQMNSLTVADTATYFCARDHPSYGMDLWGPGTLVTVSS
VL: B3 VL with N26S, N49D, G63A, G80E, G95V
modifications: EDA-PNU-159682 derivative on the C-terminal glycine (G5-PNU joined by sortase)
B4 yielded an IC50, in vitro cell killing of 697 cells in assay [2] of 0.592 µg/mL.
